Measured values: patent US20160017055A1 (Takeda / Millennium, published 2016)

Biological target: T1, plasma kallikrein Mutant 2 (catalytic domain; R551A, Q553A, Y555A, T558A, R560A) (human, UniProt P03952 391-638)
T1 construct: Mutations in a subsite of the active site (printed 'S subsite')
Assay: Ki,app; inhibition of PKal catalytic domain activity, Morrison fit
Method: Briefly, PKal and a Fab at various concentrations are incubated together for 1 hour at 30° C. A substrate peptide (cleavable by PKal) is then added to this PKal-Fab mixture. The rate of substrate peptide cleavage/proteolysis is then measured, and plotted against the concentrations of the Fab. This plot is then fit to the Morrison equation, which calculates the K_{i,app} value.
The inhibitory activity of X₁₁₅-F02 against the wild-type PKal and the mutants were carried out using the method described in Example 2 above and the K_{i,app} values were determined.

T1 sequence (P03952 391-638 C503S/R551A/Q553A/Y555A/T558A/R560A limits assumed): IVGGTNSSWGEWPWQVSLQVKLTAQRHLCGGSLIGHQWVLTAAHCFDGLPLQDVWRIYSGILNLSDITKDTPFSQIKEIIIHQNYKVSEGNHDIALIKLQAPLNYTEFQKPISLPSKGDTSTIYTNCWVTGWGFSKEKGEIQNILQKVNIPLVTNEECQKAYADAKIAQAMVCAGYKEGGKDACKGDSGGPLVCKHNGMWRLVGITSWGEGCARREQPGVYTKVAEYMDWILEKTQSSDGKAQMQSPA

fold reduction of inhibitory potency (Ki,app) against wild-type PKal: ~65 fold
B1: X115-F02 (antibody, human IgG1, kappa, V domains shown)
VH: EVQLLESGGGLVQPGGSLRLSCAASGFTFSHYIMMWVRQAPGKGLEWVSGIYSSGGITVYADSVKGRFTISRDNSKNTLYLQMNSLRAEDTAVYYCAYRRIGVPRRDEFDIWGQGTMVTVSS
VL: DIQMTQSPSTLSASVGDRVTITCRASQSISSWLAWYQQKPGKAPKLLIYKASTLESGVPSRFSGSGSGTEFTLTISSLQPDDFATYYCQQYNTYWTFGQGTKVEIKR
